According to patent US20240174744A1 (SCIRHOM, published 2024):
Positions count from the first letter of the chain named.

B1: antibody 43 (antibody, V domains shown)
VH: QVALKESGPGILQPSQTLSLTCSFSGFSLSTFGMGVGWIRQSSGKGLEWLANIWWDDDKYYNPALKSRLTISKDASKNQAFLKIANVDTADTATYYCARIGNYGSNYWYFDVWGTGTTVTVSS
VL: QIVLTQSPAIMSASPGERVTMTCSANSRISYMYWYQQKPGSSPRLLIYDTSNLASGVPVRFSGSGSGTSYSLTISRMEAEDAATYNCQQWSSYPLTFGAGTKLELK
notes: Mouse IgG, kappa light chain; also called clone #43
B2: antibody 44 (antibody, V domains shown)
VH: B1 VH with A3T, S42P, G44E, N52H, A75T, A80I, A85T, D91E, A98S
VL: QIVLTQSPAVMSASPGEKVTMTCTASSSVYYMYWYQQTPGSSPRLLIYDTSNLASGVPVRFSGSGSGTSYSLTISRMEAEDAATYYCQQWNTYPLTFGAGTKLELK
notes: Mouse IgG, kappa light chain; also called clone #44; m44
B3: antibody 42 (antibody, V domains shown)
VH: B1 VH with A3T, F24L, M34R, S42P, N52H, D58E, A75T, A80V, K83R, G101Q
VL: B1 VL with Q1L, R18K, S24G, N26T, Y33F, L45V, M77V, A82V, N86Y, S91N
notes: Mouse IgG, kappa light chain; also called clone #42; m42
B4: antibody 22 (antibody, V domains shown)
VH: B1 VH with A3T, S42P, N52H, D58E, P63S, D74A, A75T, A80V, G101S, D111N
VL: B2 VL with I2V, V10L, T24S, S26G, Y30S, T38K, L45V, V59A, S62T, T92S
notes: Mouse IgG, kappa light chain; also called clone #22; m22
B5: antibody 34 (antibody, V domains shown)
VH: QVTLKESGPGILQPSQTLSLTCSFSGFSLSTFSLGVGWIRQSSGKGLEWLAHIWWDDEKYYNPALKSRLTISKDTSKNQVFLKIANVDAADTATYYCARAYYSKSYYALDYWGQGTSVTVSS
VL: DIQMTQSPSSLSASLGERVSLTCRASQEISGYLSWLQQKPDGTIKRLIYAASTLDSGVPKRFSGSRSGSDYSLAISSLESEDFADYYCLQYANFPFTFGSGTKLEIK
notes: Mouse IgG, kappa light chain; also called clone #34; m34

Target: T1, hiR2-FL-I566E-T7 (human iRhom2 full length I566E, 3 x T7 tag) (human, UniProt Q6PJF5 1-856)
T1 sequence: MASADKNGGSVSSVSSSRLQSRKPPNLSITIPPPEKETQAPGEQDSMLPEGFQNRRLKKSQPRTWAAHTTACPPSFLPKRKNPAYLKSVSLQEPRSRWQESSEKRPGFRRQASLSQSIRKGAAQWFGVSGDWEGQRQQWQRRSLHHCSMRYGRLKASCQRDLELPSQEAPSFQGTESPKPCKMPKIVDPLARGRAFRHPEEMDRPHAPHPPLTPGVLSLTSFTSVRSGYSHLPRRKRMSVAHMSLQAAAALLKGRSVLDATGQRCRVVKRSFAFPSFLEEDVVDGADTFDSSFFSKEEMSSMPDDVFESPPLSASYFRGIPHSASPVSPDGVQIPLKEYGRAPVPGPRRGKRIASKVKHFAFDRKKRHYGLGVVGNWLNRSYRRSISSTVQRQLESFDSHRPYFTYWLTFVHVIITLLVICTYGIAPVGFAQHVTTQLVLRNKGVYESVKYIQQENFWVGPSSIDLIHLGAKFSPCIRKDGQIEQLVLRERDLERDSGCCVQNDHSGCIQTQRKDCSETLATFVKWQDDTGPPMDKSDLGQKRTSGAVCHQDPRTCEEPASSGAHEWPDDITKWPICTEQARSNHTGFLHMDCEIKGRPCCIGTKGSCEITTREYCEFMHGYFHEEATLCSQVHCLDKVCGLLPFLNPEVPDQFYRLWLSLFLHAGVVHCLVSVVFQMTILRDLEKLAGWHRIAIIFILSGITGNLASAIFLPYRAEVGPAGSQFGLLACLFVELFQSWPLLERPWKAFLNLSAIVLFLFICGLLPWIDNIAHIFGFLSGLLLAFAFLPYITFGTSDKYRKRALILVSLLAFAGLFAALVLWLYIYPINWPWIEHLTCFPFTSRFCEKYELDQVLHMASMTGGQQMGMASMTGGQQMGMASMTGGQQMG
Experiment: FACS on cells of the row I566E, vs human iR2 wild type = 100%
Text: In brief, immortalized MEF-DKO hiR2-FL-G563D-T7, MEF-DKO hiR2-FL-A564P-T7, MEF-DKO hiR2-FL-I566E-T7, MEF-DKO hiR2-FL-D569E-T7, MEF-DKO hiR2-FL-E579K-T7, MEF-DKO hiR2-FL-Q580N-T7, MEF-DKO hiR2-FL-A581S-T7, MEF-DKO hiR2-FL-R582A-T7, MEF-DKO hiR2-FL-S583G-T7, MEF-DKO hiR2-FL-G587N-T7, MEF-DKO hiR2-FL-F588H-T7, MEF-DKO hiR2-FL-L589P-T7, MEF-DKO hiR2-FL-E594V-T7, MEF-DKO hiR2-FL-K596T-T7, MEF-DKO hiR2-FL-S607R-T7, MEF-DKO hiR2-FL-T612S-T7, MEF-DKO hiR2-FL-E617D-T7, MEF-DKO hiR2-FL-H620R-T7, MEF-DKO hiR2-FL-L636M-T7, MEF-DKO hiR2-FL-K638D-T7, MEF-DKO hiR2-FL-I771F-T7, MEF-DKO hiR2-FL-I825V-T7, MEF-DKO hiR2-FL-I828V-T7, MEF-DKO hiR2-FL-N829R-T7, MEF-DKO hiR2-FL-W830C-T7, MEF-DKO hiR2-FL-P831E-T7, MEF-DKO hiR2-FL-1833C-T7, MEF-DKO hiR2-FL-H835F-T7, MEF-DKO hiR2-FL-F839I-T7, MEF-DKO hiR2-FL-S843D-T7, MEF-DKO hiR2-FL-Q853A-T7, MEF-DKO hiR2-FL-V854Q-T7 and MEF-DKO hiR2-FL-R844K-T7 cells were harvested with 10 mM EDTA in PBS, washed and resuspended in FACS buffer (PBS, 3% FBS, 0.05% sodium azide), and seeded in Nunc U-bottom 96-well plates (Thermo Fisher Scientific, USA) at approximately 1×10⁵ cells per well. To pellet cells and remove supernatants, the plates were centrifuged at 1,500 rpm and 4° C. for 3 minutes. For primary staining, cells were resuspended in 100 μl per well of either FACS buffer alone (controls) or the purified antibodies 3, 5, 16, 22, 34, 42, 43, 44, 48, and 50 of the present disclosure at 3 μg/ml in FACS buffer and incubated on ice for 1 hour. Afterwards, plates were centrifuged at 1,500 rpm and 4° C. for 3 minutes and washed twice with 200 μl per well of FACS buffer. For secondary staining, cells were spun down and resuspended in 100 μl per well of PE-conjugated goat anti-mouse IgG F(ab′)2 detection fragment (Dianova, Germany) diluted 1:100 in FACS buffer. Protected from light, the cell suspensions were incubated on ice for 1 hour. Plates were then centrifuged at 1,500 rpm and 4° C. for 3 minutes and washed three times with 200 μl per well of FACS buffer. Finally, cells were resuspended in 150 μl per well of FACS buffer and analyzed using a BD Accuri™ C6 Plus flow cytometer (Becton Dickinson, Germany).

Q: For B1, which “grade of loss of binding vs wild type” value is on record?
A: Its value is 2 grade (2 => 60% loss of binding vs wild type).

Q: How did the “grade of loss of binding vs wild type” value turn out when B2 was run?
A: The value was 2 grade (2 => 60% loss of binding vs wild type).

Q: For B3, which “grade of loss of binding vs wild type” value is on record?
A: The value was 2 grade (2 => 60% loss of binding vs wild type).

Q: For B4, which “grade of loss of binding vs wild type” value is on record?
A: Its value is 2 grade (2 => 60% loss of binding vs wild type).

Q: With B5 as the binder, how does the “grade of loss of binding vs wild type” value read?
A: The value was 2 grade (2 => 60% loss of binding vs wild type).
